The text below walks through data of article PMC9982069 (PNAS Nexus, 2023).

For series [1], the target named is batCOV5-N3 [change] (residues 391-427 of batCOV5 N protein) fused to C-terminal GFP-His10 (Pipistrellus bat coronavirus HKU5). The series is described as follows: MST. The note with it: both partners purified.
Series [2] shares this target. Description: MST. The conditions noted are these: both partners purified. This is another data set of the same source.
Series [3] has the same target. The series is described as follows: MST. The note with it: both partners purified. This is another data set of the same source.
The target is the same in series [4]. Description: MST. The conditions noted are these: both partners purified. The source holds these as a separate data set.
Series [5] deals with the molecule itself. Description: cross-linking.
Series [6] has as its target batCOV5-N3 (residues 391-427) with C-terminal GFP-His10 (MST) (Pipistrellus bat coronavirus HKU5, UniProt A3EXD7 391-427). The series is described as follows: MST. The note with it: both partners purified.

Where “and” joins values, the source holds several entries; their conditions need not be identical. Identical values can stand only once.

B1: M protein of Pipistrellus bat coronavirus HKU5 (batCOV5-M), wild type (natural protein)
chain: MASSNVTLSNDEVLRLVKDWNFTWSVVFLLITIVLQYGYPSRSMFVYVIKMFVLWLLWPASMALSIFCAVYPIDLASQIISGILAATSCAMWISYFVQSIRLFMRTGSWWSFNPESNCLLNVPIGGTTVVRPLVEDSTSVTAVVTDGYLKMAGMHFGACDFQRLPSEVTVAKPNVLIALKMIKRQAYGTNSGVAIYHRYKAGNYRRPPIIQDQELALLRA
Broadly, the Kd is the equilibrium constant for the complex coming apart. Read a low Kd as higher affinity. What is called stoichiometry N is the number of molecules, sites or subunits per partner or assembly. For B1, the Kd in series [1] was 4.83 µM; in series [2], 1.9 µM; in series [3] it was 3.5 µM; in series [4] it was 3.07 µM. In series [5], the “stoichiometry N” value was 4 and 6.

B2: batCOV5-M, M protein of Pipistrellus bat coronavirus HKU5, affinity- and SEC-purified (cross-linking, MST) (natural protein)
chain: MASSNVTLSNDEVLRLVKDWNFTWSVVFLLITIVLQYGYPSRSMFVYVIKMFVLWLLWPASMALSIFCAVYPIDLASQIISGILAATSCAMWISYFVQSIRLFMRTGSWWSFNPESNCLLNVPIGGTTVVRPLVEDSTSVTAVVTDGYLKMAGMHFGACDFQRLPSEVTVAKPNVLIALKMIKRQAYGTNSGVAIYHRYKAGNYRRPPIIQDQELALLRA
In the case of B2, in series [6], the Kd is 0.77 µM.
